{"source": "paper PMC7248865", "about": "“Ultrasensitive and Highly Selective Graphene-Based Field-Effect Transistor Biosensor for Anti-Diuretic Hormone Detection”", "binders": {"B1": {"name": "ADH-specific aptamer (ssDNA)", "DNA": "TCACGTGCATGATAGACGGCGAAGCCGTCGAGTTGCTGTGTGCCGATGCACGTGA", "modifications": "5'-amine"}}, "target": "T1, anti-diuretic hormone (ADH, arginine-vasopressin) (UniProt P01185 20-28)", "T1 chain": "CYFQNCPRG", "assay": "graphene FET (drain current); 10 ag/mL to 1 pg/mL ADH in PBS; ID 116.26 to 338.64 uA at VG 8 V; sensor LOD 3.55 ag/mL; PBS (or human serum), 10 min incubation per concentration, PBS washes; pH and temperature not stated", "data": [{"binder": "B1", "values": [{"measurement": "binding result", "result": "binds"}]}]}
